This assay has as its target Aβ1-40 fibril (Homo sapiens). Description: other, fibril binding 3-point assay.

Square brackets hold non-standard residues; d marks the D form. * marks the point of attachment. NHOH = ON*

Turning to Me-[dL][dV][dF][dF][dL]-{NHOH} [PPI-1800], the Kd is ~4 nM.
